# In patent US20240317859A1 (FOUNDATION FOR BIOMEDICAL RESEARCH AND INNOVATION AT KOBE, published 2024):
# T1: substituted human PD-1, domain #7 replaced with the corresponding amino acid sequence of mouse PD-1 (human; mouse, UniProt Q15116 25-288)
# T1 construct: Human limits of domain #7 (38-48) are printed; also called PD-1 if domain #7 is replaced
# T1 chain: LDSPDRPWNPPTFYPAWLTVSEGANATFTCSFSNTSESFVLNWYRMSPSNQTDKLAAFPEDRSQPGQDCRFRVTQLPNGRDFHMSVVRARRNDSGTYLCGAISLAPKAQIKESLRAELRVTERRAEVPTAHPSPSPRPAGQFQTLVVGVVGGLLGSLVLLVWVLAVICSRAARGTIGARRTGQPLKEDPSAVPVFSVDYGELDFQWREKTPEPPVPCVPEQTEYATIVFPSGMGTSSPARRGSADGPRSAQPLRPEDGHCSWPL
# T2: substituted human PD-1, domain #1 replaced with the corresponding amino acid sequence of mouse PD-1 (human; mouse, UniProt Q15116 25-288)
# T2 construct: also called PD-1 when domain #1 is replaced
# T2 chain: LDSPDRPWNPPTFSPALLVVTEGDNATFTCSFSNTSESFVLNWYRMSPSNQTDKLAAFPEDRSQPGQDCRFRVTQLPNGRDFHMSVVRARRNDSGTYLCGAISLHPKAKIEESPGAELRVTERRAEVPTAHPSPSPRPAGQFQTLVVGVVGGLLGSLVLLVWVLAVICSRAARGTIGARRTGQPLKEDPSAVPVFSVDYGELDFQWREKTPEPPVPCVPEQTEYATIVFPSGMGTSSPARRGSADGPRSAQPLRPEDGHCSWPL
# T3: substituted human PD-1, domain #6 replaced with the corresponding amino acid sequence of mouse PD-1 (human; mouse, UniProt Q15116 25-288)
# T3 construct: Human limits of domain #6 (109-120) are printed; also called PD-1 if domain #6 is replaced
# T3 chain: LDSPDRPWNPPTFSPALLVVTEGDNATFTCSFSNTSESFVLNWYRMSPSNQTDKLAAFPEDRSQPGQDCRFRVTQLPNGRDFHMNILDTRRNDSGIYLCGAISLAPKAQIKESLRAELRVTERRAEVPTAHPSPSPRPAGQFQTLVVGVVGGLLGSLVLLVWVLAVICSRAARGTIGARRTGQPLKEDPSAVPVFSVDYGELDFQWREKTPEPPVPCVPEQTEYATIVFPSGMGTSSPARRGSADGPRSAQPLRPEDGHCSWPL
# Legend:
# [1] = biological target: T1, substituted human PD-1, domain #7 …; test: flow cytometry on cells expressing substituted human PD-1
# Description: (§1) These sub-groups of antibodies are characterized by a common nature that they bind to domain #6 and domain #7, and are distinguished from known antibodies.
# (§2) The gene of human PD-1 (wild-type) or substituted human PD-1 in which regions 1 to 8 as shown in FIG. 2A were replaced with mouse sequences and a gene of fluorescent protein such as GFP were co-expressed in a cell line (such as DO11.10 T cell hybridoma or HEK293T) by means of a vector ligating the genes with IRES sequences. The expression level of PD-1 on this cell line is correlated with the expression level of fluorescent protein such as GFP. Anti-PD-1 antibody was bound to the PD-1/GFP expressing cells, and the bound antibody was detected with a secondary antibody labeled with a different fluorescent dye. Briefly, PD-1-expressing cells were seeded in V-shaped bottom 96-well plates at 1×10⁵ cells/well. To each cell pellet, 50 μl of anti-human PD-1 antibody adjusted to 5 μg/ml was added and mixed. The mixture was incubated at 4° C. for 15 minutes. After washing, BV421-labeled anti-mouse IgG antibody or BV421-labeled anti-human IgG antibody, each adjusted to 5 μg/ml, was added in 50 μl. The mixture was incubated at 4° C. for 15 minutes. After washing, cells were suspended in 200 μl of buffer, and passed through a 70 μm filter. The fluorescence intensity of the filtrate was measured with a flow cytometer. The thus obtained fluorescence intensity can be rephrased as the binding capacity of anti-human PD-1 antibody to human PD-1 (wild-type or substituted). […] Binding characteristics to R143A point mutant or substituted Mouse PD-1 (hu38-48) were also analyzed in the same manner.
# [2] = biological target: T2, substituted human PD-1, domain #1 …; test: as above
# Description: as §1, §2
# [3] = biological target: T3, substituted human PD-1, domain #6 …; test: as above
# Description: as §1, §2
# [4] = biological target: T4, human PD-1 (wild-type), expressed on cells (human, UniProt Q15116 25-288); test: flow cytometry on PD-1-expressing cells
# T4 construct: also called hPD-1; wild-type human PD-1
# Description: as §2, with “After washing, cells were suspended in 200 μl of buffer, and passed through a 70 μm filter.” left out
Binder,binding result [1],binding result [2],binding result [3],binding result [4]
"mouse HM297 (antibody, mouse IgG2a, kappa, Mouse anti-human PD-1 monoclonal antibody (mouse IgG)) heavy: EVLLQQSGPELVKPGASVKIPCKASGYTFTDYNVDWVRQSHGKSLEWIGDIDPNNGGTIYNQKFKDKATLTVDKSSRTAYMELRSLTSEDTAVYYCARWRGAMDYWGQGTSVTVSSAKTTAPSVYPLAPVCGDTTGSSVTLGCLVKGYFPEPVTLTWNSGSLSSGVHTFPAVLQSDLYTLSSSVTVTSSTWPSQSITCNVAHPASSTKVDKKIEPRGPTIKPCPPCKCPAPNLLGGPSVFIFPPKIKDVLMISLSPIVTCVVVDVSEDDPDVQISWFVNNVEVHTAQTQTHREDYNSTLRVVSALPIQHQDWMSGKEFKCKVNNKDLPAPIERTISKPKGSVRAPQVYVLPPPEEEMTKKQVTLTCMVTDFMPEDIYVEWTNNGKTELNYKNTEPVLDSDGSYFMYSKLRVEKKNWVERNSYSCSVVHEGLHNHHTTKSFSRTPGK light: DVQMTQTTSSLSASLGDRVTISCRASQDIDNYLKWYQQKPDGTVKLLIYDTSRLHSGVPSRFSGSGSGTDYSLTISNLKQEDIATYFCQQGYTLPWTFGGGTRLEIKRADAAPTVSIFPPSSEQLTSGGASVVCFLNNFYPKDINVKWKIDGSERQNGVLNSWTDQDSKDSTYSMSSTLTLTKDEYERHNSYTCEATHKTSTSPIVKSFNRNEC",no binding (tested: 5 µg/ml),no binding (tested: 5 µg/ml),no binding (tested: 5 µg/ml),
"mouse HM266 (antibody, mouse IgG2a, kappa, V domains shown, Mouse anti-human PD-1 monoclonal antibody (mouse IgG)) VH: QVQLQQSGPELVKPGASVKMSCKASGYTFTSYYIQWVKQRPGQGLEWIGWIYPGDGSSKYNEKFKGKTTLTADKSSSTAYMLLSSLTSEDSGIYFCASYYGSSFDYWGQGTTLTVSS VL: DIQMTQTTSSLSASLGDRVTISCRASQDISNYLNWYQQKPDGTVKFLIYYSSRLHSGVPSRFSGSGSGTDYSLTISNLEQEDIATYFCQQGSTLPFTFGGGTKLEIKR",,,,binds
"HM698 (antibody, V domains shown) VH: EVLLQQSGPELVKPGASVKIPCKASGYTFTDYNMDWVKQSHGKSLEWIGDIDPNNGGTVYNQKFKGKASLTVDKSSSTAYMELRSLTSEDTAVYYCARWRSAMDYWGQGTSVTVSS VL: DIQMTQTTSSLSASLGDRVTISCRASQDISNYLNWYQQKPDGTVKLLIYYTSRLHSGVPSRFSGSGSGTDYSLTISNLEQEDIATYFCQQYNTLPWTFGGGTKLEIKR",no binding (tested: 5 µg/ml),,no binding (tested: 5 µg/ml),
"HM647 (antibody, V domains shown) VH: EVLLQQSGPELVKPGASVKITCKASGYTFTDYNMDWVKQSHGKSLEWIGDIDPNNGGTVYNQKFKDKASLTVDKSSSTGYMELRSLTSEDTAVYYCARWRSAMDYWGQGTSVTVSS VL: DIQMTQPTSSLSASLGDRVTISCRASQDISNYLNWYQQKPDGTVKLLISYTSRLHSGVPSRFSGSGSGTDYSLTISNLEQVDIATYFCQQYSTLPWTFGGGSKLEIKR",no binding (tested: 5 µg/ml),,no binding (tested: 5 µg/ml),
"HM624 (antibody, V domains shown) VH: EVLLQQSGPELVQPGTSVKIFCKASGYTFTDYNIDWVKQSHGKSHEWIGDIDPNNGGTVYNQKFKGKATLTVDKSSTTAYMELRSLTSEDTAVYYCTRWRGAMDYWGRGTSVTVSS VL: DIQMTQTTSSLSASLGDRVTISCRASQDVSNYLNWYQQKPDGTVKLLIYDTSKLHSGVPSRFSGSGSGTDYSLTIRDPDQEDIATYFCQQGHTLPWTFGGGTKLEIRR",no binding (tested: 5 µg/ml),no binding (tested: 5 µg/ml),no binding (tested: 5 µg/ml),
